The results in this text go back to article PMC12534507.

Assay [1] has as its target truncated human Derlin-1 (Derlin-1^Δ215-239) (human) (UniProt Q9BUN8). The assay can be described thus: cryo-EM structure.
Assay [2] addresses wild-type C-terminally Strep-tagged Derlin-1 (human) (UniProt Q9BUN8). The assay can be described thus: cross-linking.

One may read the stoichiometry N as the number of molecules, sites or subunits per partner or assembly.

As to “truncated human Derlin-1 (Derlin-1^Δ215-239) (from UniProt Q9BUN8) (natural protein)”, the stoichiometry N in assay [1] is 6.
For the substance “wild-type C-terminally Strep-tagged Derlin-1 (from UniProt Q9BUN8 1-251) (natural protein)”, in assay [2], the stoichiometry N came out at 2.
